Changes are numbered by the printed parent chain.
T1: FcγRIIa R type extracellular domain with C-terminal His tag (human, UniProt P12318 34-217)
T1 construct: extracellular domain; also called FcgRIIaR; not shown: His tag at the C terminus
T1 sequence (looked up): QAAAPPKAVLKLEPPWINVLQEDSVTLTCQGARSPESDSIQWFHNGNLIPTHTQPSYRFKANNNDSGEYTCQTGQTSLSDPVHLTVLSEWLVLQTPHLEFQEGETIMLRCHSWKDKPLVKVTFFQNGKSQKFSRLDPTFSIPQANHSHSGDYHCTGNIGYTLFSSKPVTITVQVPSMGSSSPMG

T2: FcγRIIb extracellular domain with C-terminal His tag (human, UniProt P31994 43-217)
T2 construct: extracellular domain; also called FcgRIIb; not shown: His tag at the C terminus
T2 sequence (looked up): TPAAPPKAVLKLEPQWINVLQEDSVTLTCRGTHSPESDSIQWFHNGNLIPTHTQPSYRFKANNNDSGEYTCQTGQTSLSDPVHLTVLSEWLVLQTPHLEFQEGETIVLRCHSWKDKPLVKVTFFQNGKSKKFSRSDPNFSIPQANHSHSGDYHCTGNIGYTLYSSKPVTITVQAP

T3: FcγRIIa R type extracellular domain, His tag (human, UniProt P12318 34-217)
T3 construct: extracellular domain; also called FcgRIIaR
T3 sequence (looked up): T1 sequence (looked up)

T4: FcγRIIb extracellular domain, His tag (human, UniProt P31994 43-217)
T4 construct: extracellular domain; also called FcgRIIb
T4 sequence (looked up): T2 sequence (looked up)

B1: IL6R-BP560/IL6R-L (antibody, human IgG1, kappa, name in EU numbering)
heavy: QVQLQESGPGLVKPSETLSLTCAVSGHSISHDHAWSWVRQPPGEGLEWIGFISYSGITNYNPSLQGRVTISRDNSKNTLYLQMNSLRAEDTAVYYCARSLARTTAMDYWGEGTLVTVSSASTKGPSVFPLAPSSKSTSGGTAALGCLVKDYFPEPVTVSWNSGALTSGVHTFPAVLQSSGLYSLSSVVTVPSSSLGTQTYICNVNHKPSNTKVDKKVEPKSCDKTHTCPPCPAPELLGGDSVFLFPPKPKDTLMISRTPEVTCVVVDVGEEDGEVKFNWYVDGVEVHNAKTKPREEQDNSTYRVVSVLTVLHQDWLNGKEYKCKVSNKALPRPIEKTISKAKGQPREPQVYTLPPSRDELTKNQVSLTCLVKGFYPSDIAVEWESNGQPENNYKTTPPVLDSDGSFFLYSKLTVDKSRWQQGNVFSCSVMHEALHNHYTQESLSLSP
light: not shown
notes: human IgG1
B2: IL6R-BP568/IL6R-L (antibody, human IgG1, kappa, name in EU numbering)
heavy: B1 heavy with E235D, V266I, G269A, D298Y, R332A
light: not shown
notes: human IgG1
B3: IL6R-BP549/IL6R-L (antibody, human IgG1, kappa, name in EU numbering)
heavy: B1 heavy with G239D, D298Y
light: not shown
notes: human IgG1
B4: IL6R-BP505/IL6R-L (antibody, human IgG1, kappa, name in EU numbering)
heavy: B1 heavy with E235D, G239D, V266I, G269A, E274D, D298Y, R332A
light: not shown
notes: human IgG1
B5: IL6R-BP479/IL6R-L (antibody, human IgG1, kappa, name in EU numbering)
heavy: B1 heavy with E235D, G239D, V266I, V268L, G269A, D298Y, R332A
light: not shown
notes: human IgG1
B6: IL6R-BP567/IL6R-L (antibody, human IgG1, kappa, name in EU numbering)
heavy: B1 heavy with E235D, V266I, G269A, R332A
light: not shown
notes: human IgG1
B7: IL6R-BP481/IL6R-L (antibody, human IgG1, kappa, name in EU numbering)
heavy: B1 heavy with E235D, G239D, V266I, G269A, D298Y, R332A
light: not shown
notes: human IgG1
B8: IL6R-BP508/IL6R-L (antibody, human IgG1, kappa, name in EU numbering)
heavy: B1 heavy with E235D, G239D, V266I, G269A, E274P, R332A
light: not shown
notes: human IgG1
B9: IL6R-BP484/IL6R-L (antibody, human IgG1, kappa, name in EU numbering)
heavy: B1 heavy with E235D, G239D, G269A, E271D, D298Y, R332A
light: not shown
notes: human IgG1
B10: IL6R-BP483/IL6R-L (antibody, human IgG1, kappa, name in EU numbering)
heavy: B1 heavy with E235D, G239D, V268L, G269A, D298Y, R332A
light: not shown
notes: human IgG1
B11: IL6R-P662/IL6R-L (antibody, human IgG1, kappa)
heavy: B1 heavy with G269S, E270H, G273P, S300A, S326N, R332A, E441K
light: not shown
B12: IL6R-P663/IL6R-L (antibody, human IgG1, kappa)
heavy: B1 heavy with G269S, E270H, G273P, S300A, R332H, E441K
light: not shown

The binders below were run against T5, FcγRIa extracellular domain with C-terminal His tag (human, UniProt P12314 16-292) (assay: SPR, antibody captured, FcgR analyte).
T5 construct: also called FcgRIa; CD64; not shown: His tag at the C terminus
T5 sequence (P12314 16-292): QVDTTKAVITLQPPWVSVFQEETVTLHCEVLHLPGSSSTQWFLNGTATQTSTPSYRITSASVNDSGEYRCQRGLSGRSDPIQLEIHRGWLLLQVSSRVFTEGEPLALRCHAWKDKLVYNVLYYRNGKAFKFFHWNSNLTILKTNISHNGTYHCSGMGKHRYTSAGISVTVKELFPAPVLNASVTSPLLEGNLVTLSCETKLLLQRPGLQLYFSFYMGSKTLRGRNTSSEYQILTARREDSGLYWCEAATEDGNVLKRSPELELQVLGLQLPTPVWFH

Row | Binder | Kd [nM]
1 | B1 | 5.6
2 | B2 | 0.19
3 | B3 | 18
4 | B4 | 1.1
5 | B5 | 5.3
6 | B6 | 0.21
7 | B7 | 1
8 | B8 | 1.4
9 | B9 | 0.82
10 | B10 | 1.3

The binders below were run against T1, FcγRIIa R type extracellular domain … (assay: SPR, antibody captured, FcgR analyte).

Row | Binder | Kd [nM]
11 | B1 | 4200
12 | B2 | 680
13 | B3 | 570
14 | B4 | 430
15 | B5 | 900
16 | B6 | 890
17 | B7 | 400
18 | B8 | 540
19 | B9 | 780
20 | B10 | 1300

What follows are binders tested against T2, FcγRIIb extracellular domain with … (assay: SPR, antibody captured, FcgR analyte).

Row | Binder | Kd [nM]
21 | B1 | 180
22 | B2 | 15
23 | B3 | 16
24 | B4 | 21
25 | B5 | 56
26 | B6 | 14
27 | B7 | 19
28 | B8 | 21
29 | B9 | 46
30 | B10 | 78

The binders below were run against T3, FcγRIIa R type extracellular domain, … (assay: SPR, bound amount per captured antibody).

Row | Binder | Relative FcgRIIaR-binding Activity
31 | B11 | 11.2 % of IL6R-G1d/IL6R-L
32 | B12 | 10.1 % of IL6R-G1d/IL6R-L

Each binder was assayed against T4, FcγRIIb extracellular domain, His tag (assay: SPR, bound amount per captured antibody).

Row | Binder | Relative FcgRIIb-binding Activity
33 | B11 | 73.3 % of IL6R-G1d/IL6R-L
34 | B12 | 79.7 % of IL6R-G1d/IL6R-L

What follows are binders tested against T1, FcγRIIa R type extracellular domain … (assay: SPR; KD of IL6R-B3/IL6R-L divided by KD of variant).

Row | Binder | Relative FcgRIIaR-binding Activity
35 | B1 | 0.3
36 | B2 | 1.6
37 | B3 | 1.9
38 | B4 | 2.5
39 | B5 | 1.2
40 | B6 | 1.2
41 | B7 | 2.7
42 | B8 | 2
43 | B9 | 1.4
44 | B10 | 0.8

Each binder was assayed against T2, FcγRIIb extracellular domain with … (assay: SPR; KD of IL6R-B3/IL6R-L divided by KD of variant).

Row | Binder | Relative FcgRIIb-binding Activity
45 | B1 | 16.8
46 | B2 | 210
47 | B3 | 196
48 | B4 | 144
49 | B5 | 55.3
50 | B6 | 224
51 | B7 | 159
52 | B8 | 149
53 | B9 | 67.6
54 | B10 | 39.6

Source: US20220411483A1 (Chugai, published 2022)
